Results published in the DeepSol protein solubility set.

Experiment: soluble on expression in E. coli; label from the status in PepcDB or PDB records

| Sequence | soluble on expression in E. coli |
| --- | --- |
| MGSDKIHHHHHHMRGYFRADWTERVELSEHDIGELRFSLKNRLGEALLLTSQEDMLRYCRDWHGDVTSSAVAVIRPRSTKEVSDTVIACAELGLAIIPQGGNTGLVLGGIPDAPKHQVVLSLERMNAIRTIDSDDFSAVVEAGCILSEFKDAVQDKGMFFPLSLGAQGSCRIGGNVSTNAGGINVLRYGMTRELVLGLEVVLPDGTIWNGLSTLRKDNRGIDLKQLFIGAEGTLGIITAVAVKLYPNPEHVETALLGLNSLDDAIKLYRRARRECCDLMSAFEFMPPVAFTLAIEAIPDLKMPIAGDYPAYVLMEISGSGLVDTADLMGRFLEGVMEDGLVLDGVIASSRAQAQSLWLFREGMNEGQALRGSHMRTDISVPLSKLAAFVAEAEAELAEKLPECLAVSYGHVGDGNVHLNVLPPNGATLEEREAFIYKSKTLVNEVLDRYVGSISAEHGIGRLKRSDFESRLSDVQRRMITGLKNAFDPDLRMNPGCQITLQPDS | not soluble |
| MGSDKIHHHHHHMRIGCVLARKGKMMMNGELAGFTIPRLGMGTMALAIEGRPDRDTAIRTIHAGLDAGVRYLDTAWSYYLPSEPGTGTAKDLGYGEKLVRDALASWNGPRDEVLVATKTGYRRTMEIPAFVAPVSDSPESDTQGRDSEGCSRRPGGERQHLQAAGSQYGWMADSRPETMIRDAKESALHLGVDTLDLLYSHGPDPEVAYEDQVGALKQLLNEGVIRYAGISRVDNAQIDIAREILGDKLIAVQNQFSPSHPDPEHTMEHCAELGLAFVCWSPLGGFLDAFDQRAYDPFRTVAGNHGCSYQRVVLAWELSRYERLFTIPSARNPQEINDSFAATELTLTQDELAMLNASVDARRG | not soluble |
| MGSDKIHHHHHHMRIGVIGLGRIGTIHAENLKMIDDAILYAISDVREDRLREMKEKLGVEKAYKDPHELIEDPNVDAVLVCSSTNTHSELVIACAKAKKHVFCEKPLSLNLADVDRMIEETKKADVILFTGFNRRFDRNFKKLKEAVENGTIGKPHVLRITSRDPAPPPLDYIRVSGGIFLDMTIHDFDMARYIMGEEVEEVFADGSVLVDEEIGKAGDVDTAVVVLRFKSGALGVIDNSRRAVYGYDQRIEVFGSKGRIFADNVRETTVVLTDEQGDRGSRYLYFFLERYRDSYLEELKTFIKNVKSGEPPAVSGEDGKMALLLGYAAKKSLEEKRSVKLEEVIG | not soluble |
| MGSDKIHHHHHHMRKDVLEGVLLHIMNEIHPNFAALAKQYNCDYRTVKRYYEAGLTGDLDKLRERKPSVPPLLHGFEEIIRDKLELNCSAASIFYFLGKKDYKGSYTTIKRYCRKYREEKVQKATIRIETTPGLSAQVDWKENVKMVSRDGEVFYFNIFLYILGYSRMKYLELTFDRTQPTVFQCLVNAFEYCGNGIPQEIWFDNMKTVVDRSKSQFTQTVFNEKFRQFAKDAGFHPIACRPFRPQTKGKVEALARTVERLMVFNYEFTDVQELKQIIYELMQDLNGSVSQAIHNKPTVLLKEELPILAPIHRLELLSYVSRNKRLLRKVSMESMVQYQNAKYSVPVKYIGKEVTLDIRRDNLFVWYGDKCIRTHPISEKALNYQREDSLEILRSDVFKYLEDEELERFVDDNLHAYDDL | not soluble |
| MGSDKIHHHHHHMRLSELKDAGRSPTLPLSITLVDAAGSADLQLLTLLRVLPGQRYVGAGVWRGTPVLAKLLVGGNAARHFQRELQGVKLLAEQGLTTPTLLADGLKEGEGGWLLFEFLDGAQSLADAWAAVENLPVLADEQHLVLGEALTAVAHMHAQGLWQEDLHLDNLLRHAGKLYLIDGAGIRAETPGQQLSRPRVLENLGVFFAQLPKRLEPFIEELLVHYLLANAEHALPLEALQKQVDKVRNWRQKDYLDKAGRECSLFSVQRTLSGLQAIRRSEVEAMQPVLEQADALIDKGHLYKTGGAASVARIEVNGRQLVIKRYNIKNTAHWFKRFWRPSRAWHSWIEGHRLEFLDIATPRPLAVLEQRVLGLRSRAYLVTEYVDGPDLTACFAPHVESGDAPEEQVDALVHVMQQLIRERISHGDFKGHNLFWHNGQWSLIDLDAMCQHATQLSFAPAYARDRARLLRNWPTGSALHQRLDRLLPKLVD | not soluble |
| MGSDKIHHHHHHMRNQILKKATVSIMLLLCINVSVADTSTSVSCAESGSASAYSRSGNSVSYSSVNCSSNNEQNAMTPAGIAVSKSYSPEPYTSLVLSGAFNTEIKTSSENRVIISGDSNYVESVEVNSSDGELIIRRPGPGNDNLNVIVESISLQKLKISGAGSTNIYGDFPDGLSVRKSGAGSINIEGQASTLKLNLSGAGNTTARDFTVDNVEIDATGAGNIAVCAKKSVAGSLAGAVHFKVYCNPSQRSVNTRGVSRVSYR | not soluble |
| MGSDKIHHHHHHMRPIQRKRVPGLNAWEARWYHGTKWVRVSSANGKSRRARRFSLMVLGGWVMERAQHNLRFTELARARAYAQAHGLRQKAVCHIVRRGTELLVFDHVPDGGAGVQVVAGGLEAGETPEQAALREAGEETGQDGFQVVGFLGSAVWLNTEHAKRELRHFVHLTAPDDLPDTWQHCADGHLFSFRWEPLHSARVDWEMDAFLPELG | not soluble |
| MGSDKIHHHHHHMRQESLFNPDKSSSSPLAYRVRPVTLADFKGQEHLLGPGKLLRQLIAEDQLPSLIFWGPPGVGKTTLAEIIAQQTQSHFITFSAVTSGIKEIRQIMDEAEANRDFGEKTIVFIDEIHRFNKAQQDAFLPYVERGSITLIGATTENPSFEINAALLSRCKVLVLKALTPDALEAVLQGALQNPKGFPDLEITMQPDTLRLIAEFANGDARMALNTLEMAVLNGDRDGKHVTITTAGLSQLINTKSLRYDKHGEEHYNIISALHKSMRNSDVDAAIYWLMRMLAGGEDPLYIARRLIRFASEDIGLADRQALPLTVAVFQACQLIGMPECDVNLTEAVTYLALAPKSNALYAAKSAAQADIKATGNLPVPLQIRNAPTKLMKDLGYGSDYQYAHDTAAKLTTMTTMPPELKQHRYYEPTSQGQEKAWQQRLAAIRSGTSNIRKPNRQMMRHKDCNLMRIH | not soluble |
| MGSDKIHHHHHHMRRTDKKKTFGQQSSKVTQLADTLSQAISMKKFREGDSLPSINQLSAEYGVSRDTVFKAFLDLRERGLIDSTPGKGYYVTSQVTNVLLLLDQYTPFKEALYNSFVKHLPINYKVDLLFHQYNERLFNTIIRESVGKYNKYIVMNFDNEKFSMVLNKIHPTKLLLLDFGKFEKEKYSYICQDFDEAFYQALLMLKEKLRHYPQLVLLFSKNLKHPQSSKEYFTRFCEEQGFLCEIQEDIENLTVRKGVVYIAIKQQDVVKVVKQGRLEGLKCGKDFGLLAYNDIPSYEVIDEGITSLSIDWEMMGNEAANFVLNNVPIQKYLPTEVRLRKSL | not soluble |
| MGSDKIHHHHHHMRTYRLVIACPDRVGIVAKVSNFLALYNGWINEASHHSDEQSGWFFMRHEIRAESLPFGIEAFREAFAPIAEEFSMTWRITDSAQKKRVVLMASRESHCLADLLHRWHTDELDCEIPCVISNHNDLRSMVEWHGIPFFHVPVDPKDKAPAFAEVSRLVQEHAADVVVLARYMQILPPQLCRDYAEKVINIHHSFLPSFVGAKPYHQAALRGVKLIGATCHYVTEELDAGPIIEQDVVRVSHADSIEDMVRFGRDVEKMVLARGLRYHLEDRVLVHGNKTVVFD | not soluble |
| MGSDKIHHHHHHMRVLIINTSERIGGAAVAAGRLMESLKNNGIKAKMLVRDKQTDQISVVGLKGSWLHVWKFMWERIVIWKANRFKKNDLFAVDIANTGTDITSLPEFQQADVIHLHWINQGMLSLNTIRKILTSGKPVVWTMHDMWPCTGICHYARECKNYEQECHHCPYIYGGGGKKDLSTRIFRKKKEIYSQASITFVGCSRWLAEKAKVSGLLTGQTVISIPNAINTNLFKPHNKQEARRKCRLPQEGKLILFGSVKITDKRKGIDYLIEACKLLAEKHPEWKESLGVVVFGNQSQQLQDLIPFRVYPLPYIKNEHELVDIYNAVDLFAIPSLEENLPNMVMEAMSCGVPCVGFNTGGIPEMIDHLHNGYVAQRKSSEDLANGIHWVLTEPEYAELSAQACRKAIGNYSESIIAKKYTEVYNKITGKYA | not soluble |
| MGSDKIHHHHHHMRVLVINSGSSSIKYQLIEMEGEKVLCKGIAERIGIEGSRLVHRVGDEKHVIERELPDHEEALKLILNTLVDEKLGVIKDLKEIDAVGHRVVHGGERFKESVLVDEEVLKAIEEVSPLAPLHNPANLMGIKAAMKLLPGVPNVAVFDTAFHQTIPQKAYLYAIPYEYYEKYKIRRYGFHGTSHRYVSKRAAEILGKKLEELKIITCHIGNGASVAAVKYGKCVDTSMGFTPLEGLVMGTRSGDLDPAIPFFIMEKEGISPQEMYDILNKKSGVYGLSKGFSSDMRDIEEAALKGDEWCKLVLEIYDYRIAKYIGAYAAAMNGVDAIVFTAGVGENSPITREDVCSYLEFLGVKLDKQKNEETIRGKEGIISTPDSRVKVLVVPTNEELMIARDTKEIVEKIGR | not soluble |
| MGSDKIHHHHHHMRWEEVEPVVRELLDFQISSPEEFRTFINKVTDFFDRVREEHGWLYIKMTVNADKEEFAKAYEEFQKEIVAKLKPYEQKIKEKIVENEHFAPRGYEHMIKVIKNDVELFREENVPLQVKESILSRNYGTIVGNIEVDFEGEKKTLQQLSVYLRDPDRSTRELAWRKRYEGIWEVRDKLNKLFDELKEIRHQQALNAGFSNYRDYMHRLKSRFEYTPEDLYRFHEAVEKEVVPYLVERTKIRQRKLGIESVRPWDTAVDVDGKVLKPFSSVEEFMEKTERALKRLNPTFAERFRLMREKNLLDLENRKGKAPGGYNHTLPKTGAPFIFMNAVGQPGDVRTIFHELGHSMHSFETLSLPVFYRPHRMEVAELASMSLELISMEYWDEFYTDPEDLKKAKIEELEGALYFLPWCMIVDAFQHWIYTNPDHTPKERDEYFAYLMDRFNPGVDWSDLDEEKKTRWLFQLHIFEVPFYYIEYGIAQIGALAIYRNYIEDPEKTLKDYQRFLSVGCSMPVDEVYKTAGIELKFSRDYIREIVDFVAKQIEEIEK | not soluble |
| MGSDKIHHHHHHMRYTLRQLEVFVAIAQHESVSLAARRLAMSQSATSTALAELERQFDCQLLDRIGKRLKLNALGFQLLPKAVALLDRGEEIEELLKGQRGIGSLDVGATLTIGNYLATLLISDFMRRHPGSRVRLHVRNTASIVDRVTHHDLDLGLIEGDCQHDDIVMQPWVEDELTVFCSPRHPLANAGEADLEALMREDWIMREEGSGTRRTLDQAMRHRRGRLNVLLELEHTEAIKRAVESGLGIGCVSHLALRDAFRRGSLVPIATPELDLTRQFTFIWHRHKYLTTAMREFLRLCREMTAGVQRSDEIDLPAVP | not soluble |
| MGSDKIHHHHHHMSDSPLIAFPRGCITGTFIRRVKRFSVEMETAGAGAPERVWIHSNNSGSMLGLLRAGAPVLASPAANPARKLKWTQELAGLDGMWVGVNTQTPNRLLEAAFHAGRLPWAAGYTMFRREARCGASRLDARMDAPQDSGLPPLWVECKNVTMVEDDVAAFPDAATERGQKHLREMMEIVRQGQRAAMFYLVQRADGHCFGPADYVDPVYAGLFYEAAAAGVEMYPHRALVSEHGIDLGPLLPVVPPPGV | not soluble |
| MGSDKIHHHHHHMSDYNFAYLDEQTKRMIRRAILKGLAIPGYQVPFASREMPMPYGWGTGGVQVSAAALTPDDTFKVIDQGADDTTNAVSIRKFFERTAGVATTEETEKASIIQTRHRIPEADLREDQILVYQVPIPEPLRFLEPRETETRKMHALEEYGLMHVKLYEDISQHGAIATSYAYPVKVEGRYVMDPSPIPKFDNPKMEMAAIQLFGAGREQRIYAVPPYTKVVSLDFEDYPFEATKAEHPCDLCAAEDSYLDEVIVDDQGGRMFVCSDTDYCRSRREAGHVGRLGQNAPLNTGPEAA | not soluble |
| MGSDKIHHHHHHMSEIKNRIDFVYIFDVQDGNPNGDPDAGNLPRVDAETGMGLVTDVCLKRKVRNYVQVAKGLEDGYDIFIKEKAVLNTLIDKAHDDSEVKNAKDKTDAARRFMCKNYFDVRTFGAVMSTGKNAGQVRGPIQFTFARSVDPIAAAEHSITRMAVATDAEAKKQSGDNRTMGRKATVPYGLYICHGFISANLAQQTGFSEEDLALFWEALKNMFDMDRSAARGLMSAQKLIVFKHDSVLGNAPANKLFDLVKVEKVCDGAPRSFGDYHVTIDKEHVPSNVTVEELI | not soluble |
